Source: PMC11309785, “Vaccine priming of rare HIV broadly neutralizing antibody precursors in non-human primates” (Science (New York, N.Y.), 2024)

B1: RM_N332_36 Fab (Fab, V domains shown)
VH: QVTLKESGPALVKPTQTLTLTCTFSGFSLSTNYMGVDWIRQPPGKALEWLARIYWNDDKYYSTSLKSRLTISKDTSKNQVVLTMSNMDPVDTATYYCARVKLSVWGVLQFFEWSDYGLDSWGQGVVVTVSS
VL: SYVLTQPPSVSVSPGQTARITCGADNIGSQSVHWYQQKSPQAPVLVISADTERPSGIPERFSGSNSGNTATLTISGVEAGDEADYYCQVWDSDSKYALFGGGTRLTVL
notes: human Fab heavy chain constant region from the vector pFabCW; human lambda constant region from the vector pCW-CLig-hL2; Macaque variable regions on human constant regions; The deposited model may hold the Fv only; also called BG18 type I Fab with D3-41 in alternate reading frame; source: FreeStyle 293F or ExpiCHO cells, purified (CaptureSelect CH1-XL)
B2: RM_N332_32 Fab (Fab, V domains shown)
VH: QLQLQESGPGLVKPSETLSLTCAVSGGSISDYCWNWIRQPPGKGLEWIGYIGGSSGSTYYNPSLKGRVTISADTSENRFSLKLSSVTAADTAVYYCARSPITVFGVVIFDEYTTGNLDLWGPGTPISISS
VL: DIQMTQSPSSLSASVGDKVTITCHASQDISSWLAWYQQKPGKAPKPLIYYASSLQSGVPSRFSGSGSGTDYTLTITSLQPEDFATYYCQQYDDLPFTFGPGTKLDIK
notes: human Fab heavy chain constant region from the vector pFabCW; human kappa constant region from the vector pCW-CLig-hk; Macaque variable regions on human constant regions; The deposited model may hold the Fv only; also called BG18 type I Fab with kappa light chain; source: FreeStyle 293F or ExpiCHO cells, purified (CaptureSelect CH1-XL)

Target: T1, N332-GT5 trimer, C-terminal His-tagged (captured ligand of the SPR) (HIV-1 isolate BG505 (N332-GT5 …, stabilised))
T1 construct: HIV-1 envelope (Env) of isolate BG505, gp120 part of the germline-targeting trimer N332-GT5, co-expressed with furin; S18, coordinates in PDB 8T4K; HIV-1 envelope (Env) of isolate BG505, gp41 ectodomain part of the trimer N332-GT5; MD65 = MD39 stabilising mutations plus V505T, V513A, V518S, L520D; also called N332-GT5 WT; source: 293F cells, co-transfected with furin, purified (HIS-TRAP, SEC); …
Experiment: SPR; ProteOn XPR36, HC30M XanTec chip; His-tagged trimer (300 to 400 RU, 1 ug/mL) captured by immobilised rabbit anti-His-tag pAb, Fab flowed as analyte at 30 ul/min for 3 min, 5 min dissociation; 1x HBS-EP+ pH 7.4 with BSA 1 mg/ml; equilibrium or kinetic (Langmuir) fits; highest concentration 2x10^-5 M, approximate upper affinity limit 1.6x10^-11 M
Settings: both partners purified

Row | Binder | Kd [pM]
1 | B1 | 38
2 | B2 | 81
